From patent US20120121591A1 (priority 2009, published 2012) come the findings set out here.

hKv1.3, sequence (P22001 whole entry): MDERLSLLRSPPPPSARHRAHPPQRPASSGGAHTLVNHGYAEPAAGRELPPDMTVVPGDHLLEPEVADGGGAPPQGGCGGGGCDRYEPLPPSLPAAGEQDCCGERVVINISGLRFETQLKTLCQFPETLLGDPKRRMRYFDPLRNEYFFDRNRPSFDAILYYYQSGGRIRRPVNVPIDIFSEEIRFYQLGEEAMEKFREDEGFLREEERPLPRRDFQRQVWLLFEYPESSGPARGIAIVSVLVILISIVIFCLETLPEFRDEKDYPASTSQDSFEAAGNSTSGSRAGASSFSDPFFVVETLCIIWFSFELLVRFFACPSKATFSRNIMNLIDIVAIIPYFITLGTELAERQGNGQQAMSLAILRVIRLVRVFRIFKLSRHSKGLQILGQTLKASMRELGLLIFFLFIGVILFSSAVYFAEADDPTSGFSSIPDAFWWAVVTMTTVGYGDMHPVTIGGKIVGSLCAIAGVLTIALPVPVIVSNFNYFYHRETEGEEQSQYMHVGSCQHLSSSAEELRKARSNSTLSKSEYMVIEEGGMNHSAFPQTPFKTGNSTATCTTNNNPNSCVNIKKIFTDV

The target of one experiment is human Kv1.3 (Homo sapiens, UniProt P22001). In words: cell-based or functional assay.
human Kv1.3, sequence (P22001 whole entry): as above
Conditions: not given
The molecule 20kDaPEG-[1-Nal16]ShK (peptide) displayed a Kv1.3 (IWQ) IC50 of 39.1 nM, a WB (IFNg) IC50 of 100 nM and a WB (IL-2) IC50 of 100 nM.

In turn, Fc.L20.FcLoop(ShK) (Fc fusion) registered an In vitro whole blood assay (inhibition of IL-2) IC50 of 2.01 nM.

In turn, FcLoop(ShK).L25.Fc (Fc fusion) showed an In vitro whole blood assay (inhibition of IL-2) IC50 of 1.91 nM.

The molecule “FcLoopShk/FcLoopShk (bivalent Fc) (Fc fusion)” came in with an In vitro whole blood assay (inhibition of IL-2) IC50 of 2 nM.

[1-Nal2]ShK (peptide) showed a Kv1.3 (IWQ) IC50 of 0.25 nM, a WB (IFNg) IC50 of 0.258 nM and a WB (IL-2) IC50 of 0.223 nM.

In turn, [1-Nal4]ShK (peptide) registered a Kv1.3 (IWQ) IC50 of 0.15 nM, a WB (IFNg) IC50 of 0.317 nM and a WB (IL-2) IC50 of 0.274 nM.

In turn, [1-Nal5]ShK (peptide) registered a WB (IFNg) IC50 of 31.9 nM and a WB (IL-2) IC50 of 70.4 nM.

As to [1-Nal6]ShK (peptide), the Kv1.3 (IWQ) IC50 turned out to be 0.15 nM, the WB (IFNg) IC50 was 0.962 nM and the WB (IL-2) IC50 was determined as 0.86 nM.

On to [1-Nal7]ShK (peptide), for which the Kv1.3 (IWQ) IC50 was 0.699 nM, the WB (IFNg) IC50 stood at 18 nM and the WB (IL-2) IC50 came out at 11.6 nM.

[1-Nal10]ShK (peptide) showed a Kv1.3 (IWQ) IC50 of 0.206 nM, a WB (IFNg) IC50 of 0.255 nM and a WB (IL-2) IC50 of 0.205 nM.

[1-Nal11]ShK (peptide) gave a Kv1.3 (IWQ) IC50 of 0.922 nM, a WB (IFNg) IC50 of 1.65 nM and a WB (IL-2) IC50 of 1.14 nM.

In the case of [1-Nal14]ShK (peptide), the WB (IFNg) IC50 stood at 0.11 nM and the WB (IL-2) IC50 stood at 0.089 nM.

Molecule [1-Nal16]ShK (peptide) registered a Kv1.3 (IWQ) IC50 of 0.699 nM, a WB (IFNg) IC50 of 9.55 nM and a WB (IL-2) IC50 of 28.9 nM.

In turn, [1-Nal18]ShK (peptide) displayed a Kv1.3 (IWQ) IC50 of 0.471 nM, a WB (IFNg) IC50 of 0.375 nM and a WB (IL-2) IC50 of 0.419 nM.

For the molecule [1-Nal20]ShK (peptide), the Kv1.3 (IWQ) IC50 stood at 2.11 nM, the WB (IFNg) IC50 was found to be 100 nM and the WB (IL-2) IC50 was determined as 100 nM.

In the case of [1-Nal21]ShK (peptide), the Kv1.3 (IWQ) IC50 is 0.669 nM, the WB (IFNg) IC50 is 8.13 nM and the WB (IL-2) IC50 was 6.59 nM.

[1-Nal25]ShK (peptide) displayed a Kv1.3 (IWQ) IC50 of 0.106 nM, a WB (IFNg) IC50 of 0.084 nM and a WB (IL-2) IC50 of 0.061 nM.

The molecule [1-Nal26]ShK (peptide) registered a Kv1.3 (IWQ) IC50 of 0.352 nM, a WB (IFNg) IC50 of 0.573 nM and a WB (IL-2) IC50 of 0.357 nM.

Turning to [1-Nal27]ShK (peptide), the Kv1.3 (IWQ) IC50 was 0.144 nM, the WB (IFNg) IC50 was 2.84 nM and the WB (IL-2) IC50 is 1.07 nM.

[1-Nal29]ShK (peptide) yielded a WB (IFNg) IC50 of 8.08 nM and a WB (IL-2) IC50 of 4.72 nM.

The next experiment addresses hKv1.3 (Homo sapiens, UniProt P22001). In words: cell-based. The experiment is classed as cell-based. Particulars: Kv1.3 (IWQ) IC50 (nM, Avg).
What is called IC50 is the point on the concentration scale where inhibition reaches its midpoint. In the case of `CCCC[C@@H]1NC(=O)[C@H](CO)NC(=O)[C@H](Cc2c[nH]cn2)NC(=O)[C@H](CCCCN)NC(=O)[C@@H]2CSSC[C@@H]3NC(=O)[C@H]([C@@H](C)O)NC(=O)[C@H](CCCCN)NC(=O)[C@H](CCCNC(=N)N)NC(=O)[C@H](CSSC[C@H](NC(=O)[C@H](CCCNC(=N)N)NC(=O)[C@H](CO)NC(=O)[C@H](CCCCN)NC(=O)[C@@H]4CCCN4C(=O)[C@H]([C@@H](C)CC)NC(=O)[C@H]([C@@H](C)O)NC(=O)[C@H](CC(=O)O)NC(=O)[C@H]([C@@H](C)CC)NC(=O)[C@@H](NC(=O)[C@H](CO)NC(=O)[C@@H](N)CCCNC(=N)N)CSSC[C@@H](C(N)=O)NC(=O)[C@H]([C@@H](C)O)NC(=O)CNC3=O)C(=O)N[C@@H]([C@@H](C)O)C(=O)N[C@@H](C)C(=O)N[C@@H](Cc3ccccc3)C(=O)N[C@@H](CCC(N)=O)C(=O)N2)NC(=O)[C@H](Cc2ccccc2)NC(=O)[C@H](CO)NC(=O)[C@H](CC(C)C)NC(=O)[C@H](CCCNC(=N)N)NC(=O)[C@H](Cc2ccc(O)cc2)NC(=O)[C@H](CCCCN)NC1=O` [[Nle21]ShK-amide], the half-inhibitory concentration (IC50) came to 0.04 nM.

For another experiment, the system named is IL-2 secretion from T cells in human whole blood.
Assay: not given
The experiment is classed as cell-based. Particulars: read-out: WB (IL-2) IC50 (nM, Avg).
As for `CCCC[C@@H]1NC(=O)[C@H](CO)NC(=O)[C@H](Cc2c[nH]cn2)NC(=O)[C@H](CCCCN)NC(=O)[C@@H]2CSSC[C@@H]3NC(=O)[C@H]([C@@H](C)O)NC(=O)[C@H](CCCCN)NC(=O)[C@H](CCCNC(=N)N)NC(=O)[C@H](CSSC[C@H](NC(=O)[C@H](CCCNC(=N)N)NC(=O)[C@H](CO)NC(=O)[C@H](CCCCN)NC(=O)[C@@H]4CCCN4C(=O)[C@H]([C@@H](C)CC)NC(=O)[C@H]([C@@H](C)O)NC(=O)[C@H](CC(=O)O)NC(=O)[C@H]([C@@H](C)CC)NC(=O)[C@@H](NC(=O)[C@H](CO)NC(=O)[C@@H](N)CCCNC(=N)N)CSSC[C@@H](C(N)=O)NC(=O)[C@H]([C@@H](C)O)NC(=O)CNC3=O)C(=O)N[C@@H]([C@@H](C)O)C(=O)N[C@@H](C)C(=O)N[C@@H](Cc3ccccc3)C(=O)N[C@@H](CCC(N)=O)C(=O)N2)NC(=O)[C@H](Cc2ccccc2)NC(=O)[C@H](CO)NC(=O)[C@H](CC(C)C)NC(=O)[C@H](CCCNC(=N)N)NC(=O)[C@H](Cc2ccc(O)cc2)NC(=O)[C@H](CCCCN)NC1=O` [[Nle21]ShK-amide], the IC50 was determined as 0.325 nM.

The subject of the next experiment is IFN-g secretion from T cells in human whole blood.
Assay: not given
The experiment is classed as cell-based. Particulars: read-out: WB (IFNg) IC50 (nM, Avg).
In the case of `CCCC[C@@H]1NC(=O)[C@H](CO)NC(=O)[C@H](Cc2c[nH]cn2)NC(=O)[C@H](CCCCN)NC(=O)[C@@H]2CSSC[C@@H]3NC(=O)[C@H]([C@@H](C)O)NC(=O)[C@H](CCCCN)NC(=O)[C@H](CCCNC(=N)N)NC(=O)[C@H](CSSC[C@H](NC(=O)[C@H](CCCNC(=N)N)NC(=O)[C@H](CO)NC(=O)[C@H](CCCCN)NC(=O)[C@@H]4CCCN4C(=O)[C@H]([C@@H](C)CC)NC(=O)[C@H]([C@@H](C)O)NC(=O)[C@H](CC(=O)O)NC(=O)[C@H]([C@@H](C)CC)NC(=O)[C@@H](NC(=O)[C@H](CO)NC(=O)[C@@H](N)CCCNC(=N)N)CSSC[C@@H](C(N)=O)NC(=O)[C@H]([C@@H](C)O)NC(=O)CNC3=O)C(=O)N[C@@H]([C@@H](C)O)C(=O)N[C@@H](C)C(=O)N[C@@H](Cc3ccccc3)C(=O)N[C@@H](CCC(N)=O)C(=O)N2)NC(=O)[C@H](Cc2ccccc2)NC(=O)[C@H](CO)NC(=O)[C@H](CC(C)C)NC(=O)[C@H](CCCNC(=N)N)NC(=O)[C@H](Cc2ccc(O)cc2)NC(=O)[C@H](CCCCN)NC1=O` [[Nle21]ShK-amide], the IC50 was 1.13 nM.
